# From the supplement of paper PMC10126150
# ± gives the standard deviation of the averaged measurements.
# System: ATP
# Assay: switch fluorescence ratio, 500 uM ATP over buffer (Cy3 cluster intensity, sum of 5 cycles each) (fold (ratio)); higher = stronger signal-on switching upon ATP binding; sequences stand for … in TCGTCGGCAGCGTCAGATGTGTATAAGAGACAGTTTTTTTTTTTTTTTTTTTTTTTTT…TC
# Details: aptamer strand: ATP DNA aptamer (quencher-CACCTGGGGGAGTATTGCGGAGGAAGG + anchor), 100 nM annealed; ATP concentration: 500 uM
# In short: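 Clusters carrying Cy3-labelled switching strands on a modified Illumina MiSeq flow-cell were annealed to 100 nM quencher-labelled ATP aptamer and imaged in selection buffer. They were imaged again after 15 min with 500 uM ATP at 22 °C, over five buffer/ATP cycles with NaOH stripping and re-annealing in between. For each cluster, the fluorescence ratio is the summed Cy3 intensity of the target cycles divided by that of the buffer cycles, averaged per switch-domain sequence. Clusters outside 100-1000 RFU were left out.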
# 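Further: ATP exposure 15 min at 22 °C before imaging.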
row,Sequence,switch fluorescence ratio
1,AATCGTGGTT,1 ± 0.034
2,AATCGTTGGG,0.955 ± 0.038
3,AATCTCGTGG,0.995 ± 0.051
4,AATCTGATGT,1.18 ± 0.28
5,AATCTGCTGC,1.09 ± 0.056
6,AATCTGCTTG,1.05 ± 0.024
7,AATCTGGGCG,0.985 ± 0.016
8,AATCTGTCCT,1.04 ± 0.027
9,AATCTGTTCG,0.9708 ± 0.004
10,AATGAAAAGT,0.992 ± 0.017
11,AATGAAATAG,0.998 ± 0.0061
12,AATGACGAGC,1.04 ± 0.017
13,AATGACTTAA,1.01 ± 0.048
14,AATGAGAGTG,1 ± 0.035
15,AATGAGGGTA,1.04 ± 0.019
16,AATGAGGGTC,0.989 ± 0.11
17,AATGAGTCGG,0.998 ± 0.033
18,AATGAGTGTT,1.02 ± 0.042
19,AATGATCGGG,1.004 ± 0.0094
20,AATGATGCTT,1 ± 0.051
21,AATGCAACAG,1.15 ± 0.056
22,AATGCAATTG,1.03 ± 0.016
23,AATGCGCATC,1.05 ± 0.023
24,AATGCTCGCT,1.022 ± 0.0061
25,AATGCTTAGA,0.985 ± 0.03

row,Sequence,switch fluorescence ratio
1,AATGGATACT,1.03 ± 0.012
2,AATGGATGTG,0.991 ± 0.013
3,AATGGCAGTG,1 ± 0.048
4,AATGGCTGGG,0.999 ± 0.043
5,AATGGGATTG,0.972 ± 0.0096
6,AATGGGCAGC,1.02 ± 0.013
7,AATGGGGCTT,0.995 ± 0.03
8,AATGGGGGGA,0.998 ± 0.057
9,AATGGGGTCT,1.01 ± 0.047
10,AATGGGGTTA,0.997 ± 0.023
11,AATGGGTATC,0.9923 ± 0.0088
12,AATGGGTGGT,1 ± 0.017
13,AATGGGTTTG,1.01 ± 0.03
14,AATGGTAAGG,0.963 ± 0.033
15,AATGGTTCGC,1.009 ± 0.0069
16,AATGGTTCTC,0.985 ± 0.022
17,AATGGTTGAC,0.988 ± 0.017
18,AATGTAAAG,1.03 ± 0.011
19,AATGTAGACT,1.017 ± 0.0084
20,AATGTAGCAC,1.048 ± 0.0063
21,AATGTCAGAG,0.986 ± 0.02
22,AATGTCAGGA,1.01 ± 0.044
23,AATGTCCGTC,1.04 ± 0.046
24,AATGTCGCGC,0.961 ± 0.016
25,AATGTCTGTA,1.01 ± 0.044

row,Sequence,switch fluorescence ratio
1,AATGTGGGTG,1.03 ± 0.045
2,AATGTGGTCG,0.983 ± 0.085
3,AATGTGTGGG,1.01 ± 0.02
4,AATGTGTTG,0.984 ± 0.041
5,AATGTGTTTG,0.992 ± 0.042
6,AATGTTAGTG,0.958 ± 0.036
7,AATGTTATTA,0.995 ± 0.048
8,AATGTTCACG,1.02 ± 0.019
9,AATGTTCATG,1.031 ± 0.0061
10,AATGTTGTTT,0.976 ± 0.02
11,AATGTTTTCT,1.05 ± 0.057
12,AATGTTTTGT,0.994 ± 0.021
13,AATTAACCCA,1.05 ± 0.051
14,AATTAACTAT,1.02 ± 0.027
15,AATTAACTCT,1.05 ± 0.02
16,AATTAAGATA,0.991 ± 0.03
17,AATTAATTCC,1.07 ± 0.026
18,AATTAATTGG,0.994 ± 0.012
19,AATTACTGG,1 ± 0.031
20,AATTAGGAGT,1.06 ± 0.079
21,AATTAGGATT,0.99 ± 0.016
22,AATTAGGGGA,1 ± 0.014
23,AATTAGGGTG,1.09 ± 0.05
24,AATTAGGTTT,1 ± 0.035
25,AATTAGTACG,0.981 ± 0.052

row,Sequence,switch fluorescence ratio
1,AATTAGTTAT,0.9835 ± 0.0033
2,AATTATCTGC,0.976 ± 0.015
3,AATTATCTGT,0.9792 ± 0.0065
4,AATTATGGGA,0.986 ± 0.051
5,AATTATTACT,1.02 ± 0.034
6,AATTATTTTA,1.022 ± 0.0018
7,AATTCCTACG,2.571 ± 0.02
8,AATTCCTAGG,1.03 ± 0.025
9,AATTCGAGAT,1.01 ± 0.034
10,AATTCGCACG,1.034 ± 0.006
11,AATTCTAATA,0.9997 ± 0.0033
12,AATTCTGAGA,1.02 ± 0.048
13,AATTGAAGTG,1.022 ± 0.01
14,AATTGCCGCG,1.02 ± 0.055
15,AATTGCCGTG,0.99946 ± 0.00023
16,AATTGCGGGA,0.9893 ± 0.0085
17,AATTGGAATA,0.956 ± 0.038
18,AATTGGGACA,1 ± 0.01
19,AATTGGGGTT,1.012 ± 0.0052
20,AATTGGGTTG,0.957 ± 0.026
21,AATTGGTGGT,0.965 ± 0.032
22,AATTGTATGG,1.04 ± 0.044
23,AATTGTATGT,0.989 ± 0.029
24,AATTGTGAAA,1.01 ± 0.013
25,AATTGTGAGG,1.01 ± 0.023

row,Sequence,switch fluorescence ratio
1,AATTGTGCCG,1.1 ± 0.17
2,AATTGTGTTT,1.01 ± 0.021
3,AATTGTTGCT,0.99301 ± 0.00023
4,AATTTAAAG,0.992 ± 0.037
5,AATTTAAAGT,0.951 ± 0.052
6,AATTTAATTT,1.015 ± 0.006
7,AATTTAGACG,1.016 ± 0.0083
8,AATTTAGTAG,1 ± 0.013
9,AATTTATAGC,0.977 ± 0.034
10,AATTTATTGG,1.01 ± 0.013
11,AATTTCGTTG,0.999 ± 0.029
12,AATTTCTCGT,0.996 ± 0.016
13,AATTTGATAG,0.988 ± 0.018
14,AATTTGATGC,0.985 ± 0.018
15,AATTTGCAGT,1.004 ± 0.0043
16,AATTTGCGGT,0.988 ± 0.022
17,AATTTGCTAA,0.981 ± 0.013
18,AATTTGGGAA,0.999 ± 0.017
19,AATTTGGGGG,1.02 ± 0.039
20,AATTTGGGGT,0.995 ± 0.035
21,AATTTGGTG,1.026 ± 0.0011
22,AATTTGTATG,0.991 ± 0.028
23,AATTTGTTTG,1 ± 0.013
24,AATTTTAAGC,0.967 ± 0.041
25,AATTTTAATT,1 ± 0.027

row,Sequence,switch fluorescence ratio
1,AATTTTAGAA,1 ± 0.053
2,AATTTTAGTG,0.986 ± 0.02
3,AATTTTGGAG,0.996 ± 0.02
4,AATTTTGGTA,0.994 ± 0.016
5,AATTTTTATT,1.039 ± 0.0073
6,AATTTTTCTG,0.9869 ± 0.008
7,AATTTTTTT,0.992 ± 0.01
8,ACAAAAGACT,1.19 ± 0.25
9,ACAAAATTTT,1.03 ± 0.067
10,ACAAACGGGT,1.44 ± 0.073
11,ACAAACGTTC,1.34 ± 0.13
12,ACAAAGTGTG,1.03 ± 0.035
13,ACAAATTGGG,1.03 ± 0.092
14,ACAACGGCCG,1.05 ± 0.012
15,ACAACGGGGG,1.05 ± 0.025
16,ACAAGAAAGG,1.01 ± 0.035
17,ACAAGATTTT,0.9788 ± 0.0046
18,ACAAGCTTGT,0.975 ± 0.063
19,ACAAGGAGGC,0.983 ± 0.014
20,ACAAGGGAGC,0.954 ± 0.018
21,ACAAGGGATG,0.972 ± 0.041
22,ACAAGGGGCG,1.05 ± 0.079
23,ACAAGTGCGG,1.05 ± 0.024
24,ACAATGAAGA,1.01 ± 0.039
25,ACAATGGATG,0.994 ± 0.041

row,Sequence,switch fluorescence ratio
1,ACAATGGGTA,1.03 ± 0.024
2,ACAATTAAGC,1.04 ± 0.028
3,ACAATTGCGT,1.05 ± 0.024
4,ACAATTGGTC,1.02 ± 0.034
5,ACACACGACG,1.29 ± 0.013
6,ACACCAGGGG,4.18 ± 0.57
7,ACACCCGCGC,1.45 ± 0.064
8,ACACCTCATA,1.1 ± 0.039
9,ACACGATTGG,0.991 ± 0.014
10,ACACGCAAAA,1.571 ± 0.0081
11,ACACGGGCCT,1.03 ± 0.062
12,ACACGGGGGA,1.01 ± 0.024
13,ACACGGTCTA,1.01 ± 0.04
14,ACACGTCTGG,1.01 ± 0.029
15,ACACTAGGGC,1.04 ± 0.02
16,ACACTAGTGT,0.985 ± 0.032
17,ACACTATAAT,1.09 ± 0.014
18,ACACTATTAT,1.07 ± 0.033
19,ACACTGCTCG,1.05 ± 0.011
20,ACACTTTCG,1.018 ± 0.0011
21,ACAGAATAGG,1.018 ± 0.0027
22,ACAGACAGCG,1.06 ± 0.022
23,ACAGACTATA,1.094 ± 0.0097
24,ACAGACTTGT,1.01 ± 0.037
25,ACAGAGGAGC,1.062 ± 0.006

row,Sequence,switch fluorescence ratio
1,ACAGAGGGAT,1.02 ± 0.018
2,ACAGCAGCGG,1.05 ± 0.021
3,ACAGCCACGG,1.18 ± 0.038
4,ACAGCTGGGG,1.0159 ± 0.00055
5,ACAGGAAGAT,1.03 ± 0.035
6,ACAGGAGCTT,1.05 ± 0.04
7,ACAGGCGCTT,1.01 ± 0.013
8,ACAGGCGGCT,1.1 ± 0.061
9,ACAGGGAGTT,0.9911 ± 0.0078
10,ACAGGGGGGC,1.06 ± 0.03
11,ACAGGGTGTC,1.05 ± 0.031
12,ACAGGTGGAA,1.235 ± 0.01
13,ACAGGTTGCG,0.9971 ± 0.0082
14,ACAGTAATGG,1.05 ± 0.041
15,ACAGTACACA,1.3 ± 0.061
16,ACAGTATGGT,1.02 ± 0.029
17,ACAGTCGACT,1.032 ± 0.0074
18,ACAGTCGGTG,1.028 ± 0.0066
19,ACAGTCTGAC,1.0082 ± 0.00053
20,ACAGTGGCAT,0.997 ± 0.034
21,ACAGTTAAGT,1.04 ± 0.039
22,ACAGTTTTCT,1.01 ± 0.024
23,ACATAAGAGG,1.05 ± 0.013
24,ACATACAGGG,1.31 ± 0.038
25,ACATACGGGG,1.3 ± 0.1
